# Assay results taken from patent US8986997B2, “Methods and compositions for increasing biological molecule stability” (The Regents of the University of Michigan, priority 2007, dated 2015).
# Residue numbers refer to the chain shown, from its start. Names and notes keep the numbering of the source. “Also recorded” adds a separate entry of the source.
# T1: colicin E7 (Escherichia coli, UniProt Q47112)
# T1 sequence (Q47112 1-576): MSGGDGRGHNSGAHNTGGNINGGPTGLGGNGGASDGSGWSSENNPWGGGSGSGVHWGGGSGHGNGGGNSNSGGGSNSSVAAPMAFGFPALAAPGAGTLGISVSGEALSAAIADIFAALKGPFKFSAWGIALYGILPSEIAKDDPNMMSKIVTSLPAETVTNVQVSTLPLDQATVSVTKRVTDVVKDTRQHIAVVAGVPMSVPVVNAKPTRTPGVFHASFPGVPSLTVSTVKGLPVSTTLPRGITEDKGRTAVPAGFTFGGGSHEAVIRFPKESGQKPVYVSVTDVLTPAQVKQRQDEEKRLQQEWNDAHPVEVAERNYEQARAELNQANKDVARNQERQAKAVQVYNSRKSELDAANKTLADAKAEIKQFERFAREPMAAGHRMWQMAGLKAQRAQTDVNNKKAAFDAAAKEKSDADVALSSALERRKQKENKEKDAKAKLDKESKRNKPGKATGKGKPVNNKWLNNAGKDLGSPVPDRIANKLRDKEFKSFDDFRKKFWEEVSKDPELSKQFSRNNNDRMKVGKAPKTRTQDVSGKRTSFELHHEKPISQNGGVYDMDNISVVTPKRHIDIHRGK
# B1: G-CSF: granulocyte-colony stimulating factor, sold under the trademark names Neopogen and Neulasta (protein, UniProt P09919 31-207, looked up)
# Granulocyte …: TPLGPASSLPQSFLLKCLEQVRKIQGDGAALQEKLVSECATYKLCHPEELVLLGHSLGIPWAPLSSCPSQALQLAGCLSQLHSGLFLYQGLLQALEGISPELGPTLDTLQLDVADFATTIWQQMEELGMAPALQPTQGAMPAFASAFQRRAGGVLVASHLQSFLEVSYRVLRHLAQP
# B2: Wildtype Im7: small helical protein that confers immunity to bacterial colicin E7 (protein)
# chain: MELKNSISDYTEAEFVQLLKEIEKENVAATDDVLDVLLEHFVKITEHPDGTDLIYYPSDNRDDSPEGIVKEIKEWRAANGKPGFKQG
# B3: N26K: Im7 variant more stable than Im7 wt, in Kan55-Im7 (protein)
# chain: B2 chain with N26K
# Experiments:
# [1] = wild type protein; in words; cited from earlier work
# colicin E7 = molecular target: T1, colicin E7; conditions: in words; listed as Im7; cited from earlier work
# [2] = Equilibrium unfolding experiments (urea denaturation, folding free energy); format: physicochemical
# Protocol: Proteins were dissolved to a concentration of approximately 100 μM in 50 mM Tris-Cl buffer at pH 7.5, containing 400 mM Na2SO4. Substocks of each mutant were made up in the same buffer containing 0, 2, 4, 6 and 8 M urea. These substocks were titrated into a black polypropylene 384 well microtitre plate (Greiner) to create eight replicates of a urea titration from 0 to 8 M urea in steps of 0.2 M urea, using a Hamilton Microlab Star robot. The plates were briefly centrifuged and incubated at 37° C. for one hour to allow the unfolding reaction to come to equilibrium. The tryptophan fluorescence of each sample was measured using a PerkinElmer EnVision platereader. The excitation wavelength was 280 nm and emission was measured using a 340-350 nm filter. Data were normalized and processed using Igor Pro (Wavemetrics). The entire dataset was fitted globally to a two-state equilibrium unfolding equation and the ΔG values for each Im7 variant were compared to that of the wildtype protein under identical conditions. ΔΔGUN=ΔGUN(mutant)−ΔGUN(wildtype)
molecule,measurement,setting,value
B1,tendency to aggregate,[1],high tendency to aggregate
B2,affinity for colicin E7,colicin E7,binds very tightly; also recorded: picomolar affinity
B3,stability of Im7 variant relative to Im7 wt,[2],more stable
